Experimental data from US20220315909.

Chain of Recombinant Mouse u-Plasminogen Activator/Urokinase (chain, as listed by the source): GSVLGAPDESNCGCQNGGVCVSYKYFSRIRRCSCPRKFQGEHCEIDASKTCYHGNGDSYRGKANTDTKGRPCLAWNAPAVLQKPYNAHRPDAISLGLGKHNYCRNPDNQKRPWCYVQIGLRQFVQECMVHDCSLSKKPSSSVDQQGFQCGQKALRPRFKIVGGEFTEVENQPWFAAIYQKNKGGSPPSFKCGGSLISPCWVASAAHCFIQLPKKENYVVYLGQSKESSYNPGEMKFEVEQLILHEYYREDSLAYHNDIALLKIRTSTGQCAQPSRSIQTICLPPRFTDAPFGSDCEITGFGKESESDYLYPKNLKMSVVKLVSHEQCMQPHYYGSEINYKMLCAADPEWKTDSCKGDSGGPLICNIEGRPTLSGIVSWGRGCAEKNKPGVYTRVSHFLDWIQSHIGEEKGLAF

Recombinant Human u-Plasminogen Activator/Urokinase
cleavage ratio (PAR) on peptide array, human uPA 1000 nM (SEQ ID NOs: 17202-17993): showed higher cleavage ratios than the sequence shown as SEQ ID NO: 3 for both the cleavages by human uPA and human MT-SP1
cleavage ratio (PAR) on peptide array, human uPA 1000 nM (SEQ ID NO 17999): showed higher cleavage ratios than the sequence shown as SEQ ID NO: 3 for both the cleavages by human uPA and human MT-SP1
cleavage ratio (PAR) on peptide array, human uPA 1000 nM (SEQ ID NO 17998): showed higher cleavage ratios than the sequence shown as SEQ ID NO: 3 for both the cleavages by human uPA and human MT-SP1
cleavage ratio (PAR) on peptide array, human uPA 1000 nM (SEQ ID NO 17996): showed higher cleavage ratios than the sequence shown as SEQ ID NO: 3 for both the cleavages by human uPA and human MT-SP1
cleavage ratio (PAR) on peptide array, human uPA 1000 nM (SEQ ID NO 17995): showed higher cleavage ratios than the sequence shown as SEQ ID NO: 3 for both the cleavages by human uPA and human MT-SP1
cleavage ratio (PAR) on peptide array, human uPA 1000 nM (SEQ ID NO 17994): showed higher cleavage ratios than the sequence shown as SEQ ID NO: 3 for both the cleavages by human uPA and human MT-SP1
cleavage ratio (PAR) on peptide array, human uPA 1000 nM (SEQ ID NO 17997): showed higher cleavage ratios than the sequence shown as SEQ ID NO: 3 for both the cleavages by human uPA and human MT-SP1
cleavage ratio (PAR) on peptide array, human uPA 1000 nM (SEQ ID NOs: 5-17201): showed higher cleavage ratios than the sequence shown as SEQ ID NO: 2 for both the cleavages by human uPA and human MT-SP1
cleavage ratio (PAR) on peptide array, human uPA 1000 nM (SEQ ID NO 18003): showed higher cleavage ratios than the sequence shown as SEQ ID NO: 3 for both the cleavages by human uPA and human MT-SP1
cleavage ratio (PAR) on peptide array, human uPA 1000 nM (SEQ ID NO 18001): showed higher cleavage ratios than the sequence shown as SEQ ID NO: 3 for both the cleavages by human uPA and human MT-SP1
cleavage ratio (PAR) on peptide array, human uPA 1000 nM (SEQ ID NO 18000): showed higher cleavage ratios than the sequence shown as SEQ ID NO: 3 for both the cleavages by human uPA and human MT-SP1
cleavage ratio (PAR) on peptide array, human uPA 1000 nM (SEQ ID NO 18002): showed higher cleavage ratios than the sequence shown as SEQ ID NO: 3 for both the cleavages by human uPA and human MT-SP1

Recombinant Mouse u-Plasminogen Activator/Urokinase
cleavage ratio (PAR) on peptide array, mouse uPA 1000 nM (SEQ ID NO 17999): also showed higher cleavage ratios for mouse uPA than the sequence shown as SEQ ID NO: 3
cleavage ratio (PAR) on peptide array, mouse uPA 1000 nM (SEQ ID NO 17998): also showed higher cleavage ratios for mouse uPA than the sequence shown as SEQ ID NO: 3
cleavage ratio (PAR) on peptide array, mouse uPA 1000 nM (SEQ ID NO 17996): also showed higher cleavage ratios for mouse uPA than the sequence shown as SEQ ID NO: 3
cleavage ratio (PAR) on peptide array, mouse uPA 1000 nM (SEQ ID NO 17995): also showed higher cleavage ratios for mouse uPA than the sequence shown as SEQ ID NO: 3
cleavage ratio (PAR) on peptide array, mouse uPA 1000 nM (SEQ ID NO 17994): also showed higher cleavage ratios for mouse uPA than the sequence shown as SEQ ID NO: 3
cleavage ratio (PAR) on peptide array, mouse uPA 1000 nM (SEQ ID NO 17203): also showed higher cleavage ratios for mouse uPA than the sequence shown as SEQ ID NO: 3
cleavage ratio (PAR) on peptide array, mouse uPA 1000 nM (SEQ ID NOs: 5-3204): showed higher cleavage ratios than the sequence shown as SEQ ID NO: 2 for all the cleavages by human uPA, human MT-SP1, and mouse uPA
cleavage ratio (PAR) on peptide array, mouse uPA 1000 nM (SEQ ID NO 17997): also showed higher cleavage ratios for mouse uPA than the sequence shown as SEQ ID NO: 3
cleavage ratio (PAR) on peptide array, mouse uPA 1000 nM (SEQ ID NO 17202): also showed higher cleavage ratios for mouse uPA than the sequence shown as SEQ ID NO: 3
